The assay has as its target T1, HTP-3–HIM-3 complex containing His6-tagged HTP-3 and wild-type HIM-3 (C. elegans, UniProt O01820 2-739; G5EBG0 1-291).
T1 sequence (looked up) 1: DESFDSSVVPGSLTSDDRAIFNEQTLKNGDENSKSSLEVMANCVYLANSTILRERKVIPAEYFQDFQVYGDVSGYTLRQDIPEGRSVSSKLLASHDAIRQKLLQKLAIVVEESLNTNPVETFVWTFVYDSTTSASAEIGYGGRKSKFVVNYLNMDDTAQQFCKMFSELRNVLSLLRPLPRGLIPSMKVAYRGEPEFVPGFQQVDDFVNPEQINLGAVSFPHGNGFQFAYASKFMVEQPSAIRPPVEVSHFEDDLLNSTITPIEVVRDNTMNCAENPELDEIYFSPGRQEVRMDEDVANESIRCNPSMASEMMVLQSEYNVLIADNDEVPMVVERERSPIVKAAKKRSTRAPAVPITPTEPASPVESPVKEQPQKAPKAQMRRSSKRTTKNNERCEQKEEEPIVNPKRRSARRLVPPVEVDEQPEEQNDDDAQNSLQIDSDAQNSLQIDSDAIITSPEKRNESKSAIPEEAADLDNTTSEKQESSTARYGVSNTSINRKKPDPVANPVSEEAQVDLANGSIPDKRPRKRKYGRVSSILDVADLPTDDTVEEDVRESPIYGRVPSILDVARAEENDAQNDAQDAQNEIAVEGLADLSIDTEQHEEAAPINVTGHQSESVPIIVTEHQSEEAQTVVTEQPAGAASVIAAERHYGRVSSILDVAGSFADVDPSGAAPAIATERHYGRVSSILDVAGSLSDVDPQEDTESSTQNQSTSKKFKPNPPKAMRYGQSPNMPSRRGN
T1 sequence (looked up) 2: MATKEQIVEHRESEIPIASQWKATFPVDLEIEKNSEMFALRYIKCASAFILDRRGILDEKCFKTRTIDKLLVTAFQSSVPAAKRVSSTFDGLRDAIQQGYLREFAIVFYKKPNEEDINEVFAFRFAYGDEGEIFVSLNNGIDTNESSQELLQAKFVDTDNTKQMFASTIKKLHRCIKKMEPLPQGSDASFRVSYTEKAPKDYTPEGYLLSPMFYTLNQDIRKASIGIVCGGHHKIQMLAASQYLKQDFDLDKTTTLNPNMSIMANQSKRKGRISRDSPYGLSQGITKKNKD
Description: pull-down.

Non-standard residues stand in square brackets, D forms with d. No end group written: not given here. *: point of attachment. Biotin = O=C1N[C@H]2[C@H](CS[C@H]2CCCCC(=O)*)N1; pS = N[C@@H](COP(=O)(O)O)C(=O)O

Data on one molecule can be found in PMC11864179 (Science Advances, 2025).

Consider Biotin-DDDLNDEEGDADQ[pS]IWGSDD [SYP-5 peptide spanning residues 528 to 547, phosphorylated at S541], for which the binding result is on record as “binds”.
